Reference: US20140087995A1 (published 2014)
Numbered stars: 1 amine (or outer) side, 2 acyl side, 3 side chain; on linkers, the order of the positions; unused ones are H or OH. Bridge positions count the residues as written; N and C are the ends. Side chains are listed from the residue outwards. Ends that are not written are not given here. * marks the point of attachment. C20 diacid = O=C(O)CCCCCCCCCCCCCCCCCCC(=O)*; γGlu = O=C(O)[C@H](CCC(=O)[*:2])N[*:1]; AEEA = NCCOCCOCC(=O)O

T1: rat amylin receptor (rat calcitonin receptor + rat RAMP 3) (rat, UniProt P32214 25-516; Q9JJ73 23-147)
T1 construct: whole, on cells; Used as membranes prepared from BHK tk'ts 13 cells transiently transfected with rat calcitonin receptor and rat RAMP 3 (Assay VI); also called rAmylin-R; rat amylin 3(a) receptor
T1 sequence (looked up) 1: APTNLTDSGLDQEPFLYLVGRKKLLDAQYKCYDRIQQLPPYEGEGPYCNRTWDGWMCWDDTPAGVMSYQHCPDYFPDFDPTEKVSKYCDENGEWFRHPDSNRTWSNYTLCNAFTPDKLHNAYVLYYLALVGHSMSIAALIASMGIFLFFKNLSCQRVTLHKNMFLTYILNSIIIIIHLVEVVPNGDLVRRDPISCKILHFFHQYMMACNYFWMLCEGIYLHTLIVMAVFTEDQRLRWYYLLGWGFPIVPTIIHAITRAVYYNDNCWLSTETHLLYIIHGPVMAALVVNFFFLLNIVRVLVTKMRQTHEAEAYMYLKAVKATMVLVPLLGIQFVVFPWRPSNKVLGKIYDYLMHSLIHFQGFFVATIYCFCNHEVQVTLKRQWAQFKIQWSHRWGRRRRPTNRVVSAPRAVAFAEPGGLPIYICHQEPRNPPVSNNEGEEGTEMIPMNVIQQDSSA
T1 sequence (looked up) 2: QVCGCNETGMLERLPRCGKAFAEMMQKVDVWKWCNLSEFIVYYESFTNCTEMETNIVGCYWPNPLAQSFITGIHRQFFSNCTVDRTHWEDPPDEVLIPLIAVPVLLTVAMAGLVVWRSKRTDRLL

T2: human calcitonin receptor (human, UniProt P30988 25-474)
T2 construct: whole, on cells; Used as membranes prepared from a BHK tk'ts 13 cell line stably transfected with the human calcitonin receptor (Assay VII); also called hCTR; hCT
T2 sequence (looked up): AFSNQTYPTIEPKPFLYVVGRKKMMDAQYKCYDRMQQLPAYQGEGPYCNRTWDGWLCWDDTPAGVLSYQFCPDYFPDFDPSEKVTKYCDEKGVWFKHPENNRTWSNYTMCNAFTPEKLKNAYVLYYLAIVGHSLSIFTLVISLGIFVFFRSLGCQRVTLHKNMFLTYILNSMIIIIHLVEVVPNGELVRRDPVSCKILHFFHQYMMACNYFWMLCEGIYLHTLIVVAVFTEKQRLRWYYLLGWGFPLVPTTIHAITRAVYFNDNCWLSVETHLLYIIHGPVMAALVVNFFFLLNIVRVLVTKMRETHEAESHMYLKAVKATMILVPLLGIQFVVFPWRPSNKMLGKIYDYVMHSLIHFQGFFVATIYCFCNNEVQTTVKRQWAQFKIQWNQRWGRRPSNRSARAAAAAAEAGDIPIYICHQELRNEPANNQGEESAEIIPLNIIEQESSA

T3: rat calcitonin receptor (rat, UniProt P32214 25-516)
T3 construct: whole, on cells; Used as membranes prepared from BHK tk'ts 13 cells transiently transfected with the rat calcitonin receptor (Assay VIII); also called rCTR; rat calcitonin (a) receptor
T3 sequence (looked up): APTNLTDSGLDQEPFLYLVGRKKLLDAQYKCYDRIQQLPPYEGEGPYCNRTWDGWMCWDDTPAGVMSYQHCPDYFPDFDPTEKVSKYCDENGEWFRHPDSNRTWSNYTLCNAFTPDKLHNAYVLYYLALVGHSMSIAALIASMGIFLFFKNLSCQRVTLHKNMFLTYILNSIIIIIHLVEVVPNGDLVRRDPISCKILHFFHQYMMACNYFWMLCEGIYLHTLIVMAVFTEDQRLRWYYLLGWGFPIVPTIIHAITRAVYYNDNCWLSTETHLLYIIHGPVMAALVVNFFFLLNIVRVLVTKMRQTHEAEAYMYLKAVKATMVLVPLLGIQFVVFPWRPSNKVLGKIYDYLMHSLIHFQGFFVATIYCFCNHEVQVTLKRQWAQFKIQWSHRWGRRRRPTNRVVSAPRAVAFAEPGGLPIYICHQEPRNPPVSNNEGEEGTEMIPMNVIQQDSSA


Key:
[1] = target: T1, rat amylin receptor (rat calcitonin …); assay: SPA competition with 125I-rat amylin, membranes of BHK cells with rat CTR + rat RAMP3 (Assay VI)
[2] = target: T2, human calcitonin receptor; assay: IC50 on human CTR divided by IC50 on human amylin receptor (Assays VII/V)
In short: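 Membranes (35 ng/μL final) + SPA beads, 50 mM Hepes pH 7.4 buffer with 1 mM CaCl2, 5 mM MgCl₂, 0.1% OA, 0.02% Tween20; 120 min, 25° C, shaking; centrifuged, counted; IC₅₀ by one-site binding competition.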

[3] = target: T3, rat calcitonin receptor; assay: IC50 on rat CTR divided by IC50 on rat amylin receptor (Assays VIII/VI)
[4] = target: T3, rat calcitonin receptor; assay: SPA competition with 125I-calcitonin, membranes of BHK cells with rat CTR (Assay VIII)

| IC50 [1] [nM] | Ratio hCT/hAmylin binding [2] | Ratio rCT/rAmylin binding [3] | IC50 [4] [nM] | Binder |
| --- | --- | --- | --- | --- |
| 0.842 | 66.7 | 39.7 | 33.4 | K([AEEA-γGlu-C20 diacid])CNTATCATQRLAHFLRHSSPNFGAIPSSTPVGSNTY-NH2 (disulfide 2-7; N-terminus assumed; SMILES CC[C@H](C)[C@H](NC(=O)[C@H](C)NC(=O)CNC(=O)[C@H](Cc1ccccc1)NC(=O)[C@H](CC(N)=O)NC(=O)[C@@H]1CCCN1C(=O)[C@H](CO)NC(=O)[C@H](CO)NC(=O)[C@H](Cc1c[nH]cn1)NC(=O)[C@H](CCCNC(=N)N)NC(=O)[C@H](CC(C)C)NC(=O)[C@H](Cc1ccccc1)NC(=O)[C@H](Cc1c[nH]cn1)NC(=O)[C@H](C)NC(=O)[C@H](CC(C)C)NC(=O)[C@H](CCCNC(=N)N)NC(=O)[C@H](CCC(N)=O)NC(=O)[C@@H](NC(=O)[C@H](C)NC(=O)[C@@H]1CSSC[C@H](NC(=O)[C@@H](N)CCCCNC(=O)COCCOCCNC(=O)CC[C@H](NC(=O)CCCCCCCCCCCCCCCCCCC(=O)O)C(=O)O)C(=O)N[C@@H](CC(N)=O)C(=O)N[C@@H]([C@@H](C)O)C(=O)N[C@@H](C)C(=O)N[C@@H]([C@@H](C)O)C(=O)N1)[C@@H](C)O)C(=O)N1CCC[C@H]1C(=O)N[C@@H](CO)C(=O)N[C@@H](CO)C(=O)N[C@H](C(=O)N1CCC[C@H]1C(=O)N[C@H](C(=O)NCC(=O)N[C@@H](CO)C(=O)N[C@@H](CC(N)=O)C(=O)N[C@H](C(=O)N[C@@H](Cc1ccc(O)cc1)C(N)=O)[C@@H](C)O)C(C)C)[C@@H](C)O, Analogue of human amylin; also called compound 61) |
| 4.89 | 101 | 22.3 | 109 | K([AEEA-γGlu-C20 diacid])CNTATCATQRLAKFLRHSSPNFGAIPSSTPVGSNTY-NH2 (disulfide 2-7; N-terminus assumed; SMILES CC[C@H](C)[C@H](NC(=O)[C@H](C)NC(=O)CNC(=O)[C@H](Cc1ccccc1)NC(=O)[C@H](CC(N)=O)NC(=O)[C@@H]1CCCN1C(=O)[C@H](CO)NC(=O)[C@H](CO)NC(=O)[C@H](Cc1c[nH]cn1)NC(=O)[C@H](CCCNC(=N)N)NC(=O)[C@H](CC(C)C)NC(=O)[C@H](Cc1ccccc1)NC(=O)[C@H](CCCCN)NC(=O)[C@H](C)NC(=O)[C@H](CC(C)C)NC(=O)[C@H](CCCNC(=N)N)NC(=O)[C@H](CCC(N)=O)NC(=O)[C@@H](NC(=O)[C@H](C)NC(=O)[C@@H]1CSSC[C@H](NC(=O)[C@@H](N)CCCCNC(=O)COCCOCCNC(=O)CC[C@H](NC(=O)CCCCCCCCCCCCCCCCCCC(=O)O)C(=O)O)C(=O)N[C@@H](CC(N)=O)C(=O)N[C@@H]([C@@H](C)O)C(=O)N[C@@H](C)C(=O)N[C@@H]([C@@H](C)O)C(=O)N1)[C@@H](C)O)C(=O)N1CCC[C@H]1C(=O)N[C@@H](CO)C(=O)N[C@@H](CO)C(=O)N[C@H](C(=O)N1CCC[C@H]1C(=O)N[C@H](C(=O)NCC(=O)N[C@@H](CO)C(=O)N[C@@H](CC(N)=O)C(=O)N[C@H](C(=O)N[C@@H](Cc1ccc(O)cc1)C(N)=O)[C@@H](C)O)C(C)C)[C@@H](C)O, Analogue of human amylin; also called compound 74) |
| 0.234 | 64.4 | 122 | 28.5 | K([AEEA-γGlu-C20 diacid])CNTATCATQRLAHFLRHSSPNFGAIPSSTNVGPNTY-NH2 (disulfide 2-7; N-terminus assumed; SMILES CC[C@H](C)[C@H](NC(=O)[C@H](C)NC(=O)CNC(=O)[C@H](Cc1ccccc1)NC(=O)[C@H](CC(N)=O)NC(=O)[C@@H]1CCCN1C(=O)[C@H](CO)NC(=O)[C@H](CO)NC(=O)[C@H](Cc1c[nH]cn1)NC(=O)[C@H](CCCNC(=N)N)NC(=O)[C@H](CC(C)C)NC(=O)[C@H](Cc1ccccc1)NC(=O)[C@H](Cc1c[nH]cn1)NC(=O)[C@H](C)NC(=O)[C@H](CC(C)C)NC(=O)[C@H](CCCNC(=N)N)NC(=O)[C@H](CCC(N)=O)NC(=O)[C@@H](NC(=O)[C@H](C)NC(=O)[C@@H]1CSSC[C@H](NC(=O)[C@@H](N)CCCCNC(=O)COCCOCCNC(=O)CC[C@H](NC(=O)CCCCCCCCCCCCCCCCCCC(=O)O)C(=O)O)C(=O)N[C@@H](CC(N)=O)C(=O)N[C@@H]([C@@H](C)O)C(=O)N[C@@H](C)C(=O)N[C@@H]([C@@H](C)O)C(=O)N1)[C@@H](C)O)C(=O)N1CCC[C@H]1C(=O)N[C@@H](CO)C(=O)N[C@@H](CO)C(=O)N[C@H](C(=O)N[C@@H](CC(N)=O)C(=O)N[C@H](C(=O)NCC(=O)N1CCC[C@H]1C(=O)N[C@@H](CC(N)=O)C(=O)N[C@H](C(=O)N[C@@H](Cc1ccc(O)cc1)C(N)=O)[C@@H](C)O)C(C)C)[C@@H](C)O, Analogue of human amylin; also called compound 68) |
| 0.45 | 65.3 | 104 | 46.8 | K([AEEA-γGlu-C20 diacid])CNTATCATQRLAHFLRHSSPNFGAIPSSTNVGSNTY-NH2 (disulfide 2-7; N-terminus assumed; SMILES CC[C@H](C)[C@H](NC(=O)[C@H](C)NC(=O)CNC(=O)[C@H](Cc1ccccc1)NC(=O)[C@H](CC(N)=O)NC(=O)[C@@H]1CCCN1C(=O)[C@H](CO)NC(=O)[C@H](CO)NC(=O)[C@H](Cc1c[nH]cn1)NC(=O)[C@H](CCCNC(=N)N)NC(=O)[C@H](CC(C)C)NC(=O)[C@H](Cc1ccccc1)NC(=O)[C@H](Cc1c[nH]cn1)NC(=O)[C@H](C)NC(=O)[C@H](CC(C)C)NC(=O)[C@H](CCCNC(=N)N)NC(=O)[C@H](CCC(N)=O)NC(=O)[C@@H](NC(=O)[C@H](C)NC(=O)[C@@H]1CSSC[C@H](NC(=O)[C@@H](N)CCCCNC(=O)COCCOCCNC(=O)CC[C@H](NC(=O)CCCCCCCCCCCCCCCCCCC(=O)O)C(=O)O)C(=O)N[C@@H](CC(N)=O)C(=O)N[C@@H]([C@@H](C)O)C(=O)N[C@@H](C)C(=O)N[C@@H]([C@@H](C)O)C(=O)N1)[C@@H](C)O)C(=O)N1CCC[C@H]1C(=O)N[C@@H](CO)C(=O)N[C@@H](CO)C(=O)N[C@H](C(=O)N[C@@H](CC(N)=O)C(=O)N[C@H](C(=O)NCC(=O)N[C@@H](CO)C(=O)N[C@@H](CC(N)=O)C(=O)N[C@H](C(=O)N[C@@H](Cc1ccc(O)cc1)C(N)=O)[C@@H](C)O)C(C)C)[C@@H](C)O, Analogue of human amylin; also called compound 69) |
